In experiment [1] the target is USP37^mUIM1,2,3 (Danio rerio USP37 312–927 with mutations in all three UIMs) (Danio rerio) (UniProt E7F6T8).
Experiment [2] concerns the target USP37^wt (isolated catalytic domain of USP37 from Danio rerio, residues 312–927) (Danio rerio) (UniProt E7F6T8).

USP37^wt (isolated catalytic domain of USP37 from Danio rerio, residues 312–927) (Danio rerio), sequence (E7F6T8 312-927): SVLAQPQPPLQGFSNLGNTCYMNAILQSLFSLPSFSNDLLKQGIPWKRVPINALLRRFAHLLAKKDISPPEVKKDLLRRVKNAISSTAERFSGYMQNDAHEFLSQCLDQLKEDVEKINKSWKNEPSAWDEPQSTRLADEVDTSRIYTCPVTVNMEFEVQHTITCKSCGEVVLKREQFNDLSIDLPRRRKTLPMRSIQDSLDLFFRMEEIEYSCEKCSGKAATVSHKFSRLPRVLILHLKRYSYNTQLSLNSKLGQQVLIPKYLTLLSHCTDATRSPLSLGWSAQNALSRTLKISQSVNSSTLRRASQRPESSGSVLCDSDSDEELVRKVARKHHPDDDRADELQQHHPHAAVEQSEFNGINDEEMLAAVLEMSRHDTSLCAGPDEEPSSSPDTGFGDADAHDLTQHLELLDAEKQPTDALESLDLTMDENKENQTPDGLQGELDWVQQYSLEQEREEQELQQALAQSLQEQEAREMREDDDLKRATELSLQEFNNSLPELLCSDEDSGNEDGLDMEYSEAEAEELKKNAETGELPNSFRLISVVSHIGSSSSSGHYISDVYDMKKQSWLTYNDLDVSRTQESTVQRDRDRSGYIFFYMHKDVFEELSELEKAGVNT
USP37^mUIM1,2,3 (Danio rerio USP37 312–927 with mutations in all three UIMs) (Danio rerio), sequence (E7F6T8 312-927 V680G/S684A/A774G/S778A/A796G/S800A): as the sequence (E7F6T8 312-927) above, with V369G, S373A, A463G, S467A, A485G, S489A counted along it

Consider “K11-linked di-Ub (from UniProt P0CG48 1-76; P0CG48 1-76) (complex)”, for which, in experiment [1], the KM of cleavage of K11-linked di-Ub (1 part IQF di-Ub, 4 parts unlabeled chain), Michaelis-Menten analysis, 25 nM enzyme was determined as 19 µM and the kcat of cleavage of K11-linked di-Ub (1 part IQF di-Ub, 4 parts unlabeled chain), Michaelis-Menten analysis stood at 0.072 s⁻¹. Also, in experiment [2], the KM of cleavage of K11-linked di-Ub (1 part IQF di-Ub, 4 parts unlabeled chain), Michaelis-Menten analysis, 25 nM enzyme was determined as 11 µM and the kcat of cleavage of K11-linked di-Ub (1 part IQF di-Ub, 4 parts unlabeled chain), Michaelis-Menten analysis came to 0.19 s⁻¹.

Regarding “K48-linked di-Ub (from UniProt P0CG48 1-76; P0CG48 1-76) (complex)”, in experiment [1], the KM of cleavage of K48-linked di-Ub (1 part IQF di-Ub, 4 parts unlabeled chain), Michaelis-Menten analysis, 1.25 nM enzyme came out at 0.72 µM and the kcat of cleavage of K48-linked di-Ub (1 part IQF di-Ub, 4 parts unlabeled chain), Michaelis-Menten analysis amounted to 0.015 s⁻¹. In experiment [2], the KM of cleavage of K48-linked di-Ub (1 part IQF di-Ub, 4 parts unlabeled chain), Michaelis-Menten analysis, 1.25 nM enzyme was 0.4 µM and the kcat of cleavage of K48-linked di-Ub (1 part IQF di-Ub, 4 parts unlabeled chain), Michaelis-Menten analysis is 0.23 s⁻¹.

With “K63-linked di-Ub (from UniProt P0CG48 1-76; P0CG48 1-76) (complex)”, in experiment [1], the KM of cleavage of K63-linked di-Ub (1 part IQF di-Ub, 4 parts unlabeled chain), Michaelis-Menten analysis, 12.5 nM enzyme was determined as 3.6 µM and the kcat of cleavage of K63-linked di-Ub (1 part IQF di-Ub, 4 parts unlabeled chain), Michaelis-Menten analysis is 0.008 s⁻¹. In experiment [2], the KM of cleavage of K63-linked di-Ub (1 part IQF di-Ub, 4 parts unlabeled chain), Michaelis-Menten analysis, 12.5 nM enzyme was 1.7 µM and the kcat of cleavage of K63-linked di-Ub (1 part IQF di-Ub, 4 parts unlabeled chain), Michaelis-Menten analysis worked out at 0.027 s⁻¹.

For the origin of these results see publication PMC6412040.
